Assay results from patent US20240026407A1, “MODIFICATION OF SAPONINS” (GLAXOSMITHKLINE BIOLOGICALS SA, priority 2020, published 2024).

B1: 152 (protein, listed as Kocuria rosea)
chain: MSDLWHGEEHAPGESDTAMTDATRTSGRAARLTELVDRLSLAEKVHLLTGETAFTLPGNERIGLAALAFSDGPTGVRGLTFVGGDAVALFPSATLIAGAFDDGIAEEVGRMLAEEAQRQHIHVVLGPTINLHRTPLGGRLFEAYSEDPYLTGRTAAAYVRGMQERGTAACLKHLVANESETLRNFMDSRVPETALRELYLLPFEMAVQDAGAWSMMAAYNDVNGVAATEHDHVQNGIVKGEWAWDGLIMSDWFATKRTAASASGGLDLVMPGPGGPWGERLVTAVRAGEVAEETIDDHVLRLLHLAERVGGLTPPGRQSRPWAQDLPAVDSPQRKEQLRRIAVRGMTVVANDGVLPLAVEGDAGQDVALIGRHAIDTVDMGGGSAVVNPPYLSTIAEGLAALLGDRVRVADGPAVRTRPVPADPAFLTDPATGTPGMQVVLLGADGTELTRYHSDSPAISLDGHDDLGEVPATAVLTTILANDAGPVRLGAVGAGRWDLVAEGQELSAELRLEGQDPGEAMLRPPAFAETVELPAAATLTATVAPAPVDWREVLLGDPGLGLAEESHLLQMTTAGKTALVAAPAPRPDDDLLAAAEAAAVAAGTAVVVVGLTEEQETEAADKTTLVLPGRQDELVRRVATAAERTVVVVNAATPVLMPWLDQVDAVLVAGLPGQEGGHAVAAALTGALEPTGRLVTSWPAADGAAPAWDVVPDGDRALSYDDGTFIGHRGYHAGHAPAPLFWFGHGLGYGTWEYGTVRARAGEGGPVVDVELTNTSSRASRETVQVYLDPAEDDQPIRLIGYQGVDVPSGATAAVRVRCDDRLLRRWDDAAGTWAPLAGGGELVLARGLGDVRARVPLA
B2: 274 (protein, listed as Modestobacter marinus)
chain: MAGDTTAPAELDRPWTNTSLSPQERARELVAAMTLEQKIAQLHGAMDTIDIYSMKADTAEGMEQLAAQIRVERHVAAIEELGIPRFRITNGPVGVGMGDGTPSPPATALPMTIGLAAGFDPALAREYGTVIGSETATLGQHVLEGPGVCLHRTPISGRNFEYFSEDPYLSGVMGVEVARAIQEHGVIAMAKHYVCNDQEYERFRADVEVDERTLRELYLLPFEMLVKDADLAAIMSAYNRVRGTYATEHRYLLHTVLREEWGWQGYVQSDFWSCRSAAPAVNAGLDHEMPDAKWLNEDNVKAALADTSLEIETVDRALVRRYTQMFRFGQFDRPYDPGEIDAEGHGAISRRIGEQIAVLLKNDGAVLPLEPGVQSVVVIGQATYVDEACLGGGGSSKVDPLYTVRPMDGLRDVLQTLGSSADLREVTVADDLSNLAEAQAAAATADVVVIMAGLVATEGADQPDAHMLNDQDRMIAEVGQVNVRTVVVLKDGNPVLMPWIDAVPAVLEAWNQGAEDGHVVADLLFGVVNPAGKLPTTYPRSWADTPFAGHPERYPGTDEGAGYPVLRYSEGRQMGYRWYQAQGITPLFPFGHGLSYTTFELSDLAVSPERTDGAAPLTVQLTVANTGDVAGAEVAQVYLELPEAAQQPPKRLVGFCKIWLEPGAAERISVTIDPAATNHPLSVWDDGAHDFVVLPGEYTVFVGSSSEDTPLSATVTID
B3: 84 (protein, listed as Tenericutes bacterium)
chain: MVNEELKTLLHTLSLTTKLKLLTGANFWESEKVLGTDLPIIVMNDGPFGVRKPTVNVDSGMLMEVIPATAFPTTSALASSFDPELLEKMGKTLATECIDQGVDLLLGPGINIKRSPLCGRNFEYFSEDPYLTSEMASGLVRGLQSKGVGATLKHYAVNNQEKERYTTNAIVDKRALNEIYLRPFHNVIKNTEPFSVMCSYNQINGRHASRHYKLLTEKLRNEANFKGLVVSDWGAVVDHVDSINAGLNLEMPGGYQNTAELEKAVKDGEIKLETIDEMITPLLKFMMYKRDNPKPKVKCDYKKNLEVAQEIAEKSAVLLRNEDNLLPINKTAKVGLIGNFAIKPRYQGSGSSQINPHTLVSVHDAFIQNDVNFVYADGYAEHEVKPNKKKIAEAVKVAKNSDVVVLCVGLPESYEVEGYDRKTLDMPPSHNELIKEVAKVNENIVIVLSTGSPVTMPWINDVKSILLTHLAGSMTGPATYNLLFGVTNPSGKLSETYPLSLDKGLPGGEFLTSDQNVLYRESLYVGYRYYDTFREQVLFPFGHGLSYTQFNTSHHEIEEVKDGYNITMEVTNIGHIRGAEVIGIYTGKSRSLLYGPRKELRAFKKVYLDPGEKQKINIFLPTESLKAYCPVKQEWVLENVNYNVYVGINVQTTDEIFQILVDDANDLSYLKNYQKENEMYYRRADFNPSIKDFTTLFGGESLPLFFANRKRPFTLANNISDTTDYWWGRTIYKIMAKTSRKLAGDDVVLQEMAVETIKELPFRSLSALSSGEVSTNQRDAILLLVNGKPIRGIFKFLRKKK
B4: 102 (protein, listed as Bacteroides fragilis)
chain: MKATTSLATSCRRLLLWGVLTLQCLFSTAQKRFTADVEQQAEKILSQMTLDEKLSYIGGINWMYTRPLERFGIPRLKMSDGPQGLGTHGPSTAYPCALMLAATWNEQLATEYGSALGKDCRARGVHVLLGPAVNIYRAPMCGRNFEYMGEDPYLTSRMATGYIKGVQGQGVMATIKHFIANNSDYDRDHISSDIDERTLNEIYFPSFRAAVQEAEVGAVMSSYNLLNGIYTTEHPWLLKDVLRQQWGFKGILMSDWGSTHHCIPAVKGGLDLEMPAGSKMQPEELKYYLRTGDITIETIDEKVRHILQTLLAFGFRETQQPDTHIPLKNPQCAQTALNVASEGLVLLKNTNQILPIRSGKVKTIAVVGKNAQGYVCGGGSGEVHPFQYVSVLDGIRKEAAERDIRVEYLDVYDYLPTIIFTDTERKQKGFRAQYFDNMNLEGTPKVEQTETKINYSWSGGTGLKEMPKEQFSVRWNGTICPQETDEYLFTLGGDDGYRLYIDGKLIADEWHEGAFRNSTYRCMLEAGKKYDLKIEYFQKGGGAAVNFIWKQKNASNNLFVEALNRNDLVVACIGFNSDTEGEGRDRTFELPEDEAQLLQNTLQSKRPVVGIVNAGGNVEMQSWEPSLKGLLWAWYGGQEAGTAIARTLFGELNPSGKLPITFEKRWEDNPTFHSYYDPDGDKHVEYAEGIFVGYRGYDKLKREVQYPFGYGLSYTRFKLSAPTVGTPKTDGSVTVTCKLTNTGRTAGAEVVQLYVSNKDTTVEHPEKELKGFRKVYLEPGETKSIEITVPAEAFSHYDTGSRRFVIDRGSHDILLGFSSRDIKAKMSVGISR
B5: 178 (protein)
chain: MSELYCPIPPRDQDIYRFRQQFGANLGSTFVLGPHDNTGESNELQLLKTSLASTGLEQTRQKWQSHWHSALTDDDLVWLKDVAQCRTLRLPLSFYSLGPLFCRGTAFEGDPSEVYHHCWSTVKHLIEKCWFHGIGILIDFQASASGINLCASAKDRTIARDCVAFLAQEITFHSMSAVVGLSVSSGCEPAPDMCECYDEILKIANAIDACLPVYIDDNQAQCNKRVFKGCESDIPQFKSDISIGKIQIPSQMMLPETEVREKINKAKAERSGFQEKVLSQVSESWGSNERQSFVHGWNLGYDDALRFFGAAVQGILAPRKGADKIYDIELWVQQRKRDIDPEQLGENSAAWEDGLRRGIQDFYNIIGI
modifications: Aspergillus niger

Assay: Experiment 4-1: screening of glucosidases for deglycosylation with purified QS-18 (0.04 mg/ml) at pH 7.5 and room temperature
Type: biochemical, Quillaja saponaria
Conditions: pH 7.5, room temperature, 20 h, clarified E. coli lysate, QS-18 2150 to QS-21 1988 by LCMS/MS
Description: Nucleotide sequences were sub-cloned into pET24b+ for expression. 10 uL of E. coli cells (One Shot® BL21(DE3) chemically competent E. coli) were transferred to each well of a 96 well PCR plate (prechilled on ice). 10 uL autoclaved water was added to the DNA, resuspended by pipetting, and 1 uL of plasmid DNA (15-30 ng) was transferred to the competent cells. Immediately after addition, the resulting mixture was mixed by pipetting. Cells were heat shocked by placing the plate in a thermal cycler at 42° C. for 30 seconds then transferred directly to an ice bath for 2 min. 100 uL sterile Lysogeny Broth (LB) medium was added to each well containing transformed cells. The content of each plate was transferred into a 96-deep well plate pre-aliquoted with 400 uL LB and the plate was incubated at 37° C. with shaking and 85% humidity for 1 hour. After outgrowth, 500 uL of sterile LB containing 100 ug/mL kanamycin was added to the plates containing cells and plates incubated at 37° C. with shaking overnight (18 hours) with humidity control (85%).
1000 mLs of Overnight Express Media was supplemented with 1 mL kanamycin 50 mg/mL and 20 mL of 50% v/v glycerol added (50 ug/mL kanamycin final and 1% glycerol). 96-Well Assay Block 2 mL plates were aliquoted with 380 uL of media per well. Pre-inoculum (20 uL) from transformation plates was added. The plates were sealed appropriately and incubated at 37° C. at 300 with shaking for 2 h. After 2 h the temperature was lowered to 20° C. and incubation continued for 20 h.
The liquid cultures were centrifuged for 10 minutes at 4° C. The supernatant was discarded, plates blotted on an absorbent material to remove residue and the plates frozen at −80° C.
Lysis buffer was prepared according to the following protocol: • 1. Polymyxin B sulphate (0.5 mg/mL) was suspended in 100 mM potassium phosphate pH 7.5 • 2. The mixture was sonicated until polymyxin B sulphate had dissolved • 3. Lysozyme (1 mg/mL) and benzonase (0.1 uL/mL lysis buffer) were added
2 copies of each cell pellet plate were removed from −80 degC freezer and allowed to thaw. 200 uL of lysis buffer was added to each well of one copy of the cell pellet plates. Plates were shaken at room temperature for 10 mins. 190 uL of cell pellet/lysis buffer was transferred to a corresponding fresh cell pellet plate. These plates were incubated at room temperature with shaking for 2 hours. Lysate was clarified by centrifugation (10 min, 4 degC).
QS-18 was obtained by analogous methods to Example 3, collecting a QS-18 containing phenyl fraction following phenyl treatment (presence of m/z corresponding to key components was confirmed by MS and the phenyl fraction then used without further treatment). QS-18 solution was prepared by diluting aqueous QS-18 (ca 1 mg/mL) with 100 mM potassium phosphate pH 7.5 to 0.2 mg/ml. 40 uL clarified lysate was transferred into fresh 96 well PCR plates. 10 uL QS-18 solution added to each well of lysate to a final concentration of 0.04 mg/ml. Incubated at room temperature with shaking for 20 h. Quenched with 50 uL MeCN and shaken at room temperature for 10 mins. Samples were analysed by LC-MS/MS using a Waters Acquity H class coupled to a Waters Xevo Tandem Quadrupole (TQD) Mass Spectrometer.
Enzyme activity was calculated as: […]
Candidate enzymes with % conversion >0.72%, i.e. >3 S.D. above negative control, were considered to be positive hits and are listed below in Table 7. Sample results are shown in FIG. 10 for a QS-21 standard, FIG. 11 for negative control and FIG. 12 for treatment with the glucosidase of SEQ ID No. 262.

Row | Molecule | Expt 4-1 % conv [%]
1 | B1 | 1.1
2 | B2 | 0.9
3 | B3 | 0.8
4 | B4 | 0.7
5 | B5 | 0.5

Assay: Experiment 4-2: screening of glucosidases for deglycosylation with purified QS-18 (1 mg/ml) at pH 6 and 30 deg C
Type: biochemical, Quillaja saponaria
Conditions: pH 6, 30 degC, 18 hrs, clarified lysate, LCMS/MS
Description: Lysates were prepared in an identical manner to Experiment 4-1 above, except the lysis buffer was prepared in 100 mM potassium phosphate buffer pH 6. QS-18 solution was prepared by dissolving QS-18 in 100 mM potassium phosphate buffer pH 6 (2 mg/mL).
12 uL clarified lysate was transferred into fresh 96 well PCR plates. 12 uL QS-18 solution was added (1 mg/ml final concentration), plates sealed and incubated overnight (30° C.) for 18 hrs. After quenching with 25 uL MeCN and shaking for 10 mins (RT), samples were analysed using the LC-MS/MS protocol described in Experiment 4-1 and enzyme activity determined in an analogous manner.

Row | Molecule | Expt 4-2 % conv [%]
6 | B1 | 0.5
7 | B2 | 0.3
8 | B3 | 0.4
9 | B4 | 0.4
10 | B5 | 0.8
